In patent US20180009889A1 (Novartis, published 2018):
Where a chain is given by its changes, count along the chain named.

T1: Gamma secretase cleaved form of the Notch3 intracellular domain (ICD3) (human, UniProt Q9UM47 1662-2321)
T1 construct: also called Notch3 ICD
T1 sequence: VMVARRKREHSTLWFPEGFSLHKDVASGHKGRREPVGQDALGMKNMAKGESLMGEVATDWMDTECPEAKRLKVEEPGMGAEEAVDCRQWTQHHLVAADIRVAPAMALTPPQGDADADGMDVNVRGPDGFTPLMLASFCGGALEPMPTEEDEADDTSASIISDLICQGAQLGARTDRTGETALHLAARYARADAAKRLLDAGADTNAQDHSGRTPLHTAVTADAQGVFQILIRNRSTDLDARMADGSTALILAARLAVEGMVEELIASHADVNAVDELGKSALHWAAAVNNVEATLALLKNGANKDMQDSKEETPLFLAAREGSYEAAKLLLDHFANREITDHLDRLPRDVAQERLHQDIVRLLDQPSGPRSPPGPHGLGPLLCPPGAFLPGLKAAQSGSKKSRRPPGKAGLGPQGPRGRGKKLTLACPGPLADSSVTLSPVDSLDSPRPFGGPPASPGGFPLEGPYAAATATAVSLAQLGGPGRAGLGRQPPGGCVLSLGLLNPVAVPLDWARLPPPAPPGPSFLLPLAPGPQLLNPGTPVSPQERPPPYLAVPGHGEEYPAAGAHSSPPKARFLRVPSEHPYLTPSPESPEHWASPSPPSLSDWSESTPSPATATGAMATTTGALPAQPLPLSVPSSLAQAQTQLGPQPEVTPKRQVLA

T2: ICD3 of MDA-MB468 cells (frame-shift mutation at amino acid 2034, premature stop) (human)
T2 construct: also called smaller ICD3; faster migrating ICD3
T2 chain: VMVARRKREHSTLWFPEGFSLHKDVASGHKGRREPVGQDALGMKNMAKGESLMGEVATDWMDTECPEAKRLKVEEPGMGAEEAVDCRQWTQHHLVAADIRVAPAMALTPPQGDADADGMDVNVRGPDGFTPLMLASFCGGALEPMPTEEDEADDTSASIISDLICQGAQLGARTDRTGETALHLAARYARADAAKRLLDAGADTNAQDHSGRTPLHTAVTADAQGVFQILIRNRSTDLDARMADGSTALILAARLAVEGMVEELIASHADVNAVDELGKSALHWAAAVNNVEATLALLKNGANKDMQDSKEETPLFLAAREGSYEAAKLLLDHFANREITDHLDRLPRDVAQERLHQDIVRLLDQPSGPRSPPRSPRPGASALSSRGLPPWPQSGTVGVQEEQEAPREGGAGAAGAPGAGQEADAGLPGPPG

B1: 12215 (antibody, human IgG1, kappa, V domains shown)
VH: QVQLVESGGGLVKPGGSLRLSCAASGFTFSTYVMHWVRQAPGKGLEWVGRIRSNTYGGITDYAAPVKGRFTISRDDSKNTLYLQMNSLKTEDTAVYYCARAEARYRDVWGQGTLVTVSS
VL: DIQMTQSPSSLSASVGDRVTITCRASQSISSHLNWYQQKPGKAPKLLIYAASNLQSGVPSRFSGSGSGTDFTLTISSLQPEDFATYYCQQDYHTPFTFGQGTKVEIKR
notes: also called MOR 12215
B2: 20337 (antibody, human IgG1, kappa, V domains shown)
VH: B1 VH with S53A, T55A, I59A, T60A
VL: B1 VL
B3: 20345 (antibody, human IgG1, kappa, V domains shown)
VH: QVQLVQSGAEVKKPGSSVKVSCKASGGTFSSYTISWVRQAPGQGLEWMGWIKPKLGMAHYAQKFQGRVTITADESTSTAYMELSSLRSEDTAVYYCARGSFWFGYWGQGTLVTVSS
VL: DIQMTQSPSSLSASVGDRVTITCRASQGINNYLNWYQQKPGKAPKLLIYDASKLQSGVPSRFSGSGSGTDFTLTISSLQPEDFATYYCQQYLQYPMTFGQGTKVEIKR
B4: 20351 (antibody, human IgG1, kappa, V domains shown)
VH: B3 VH with K54R, L55Y, M57A, H59M
VL: B3 VL
B5: 12981 (antibody, human IgG1, kappa, V domains shown)
VH: QVQLVQSGAEVKKPGSSVKVSCKASGGTFRTYAMHWVRQAPGQGLEWMGGIIPIFGIANYAQKFQGRVTITADESTSTAYMELSSLRSEDTAVYYCARDDYSTYAFAYWGQGTLVTVSS
VL: B1 VL with S30A, H32Y, N34A, A50D, D91A, H93K, F96Y
notes: also called MOR 12981
B6: 12229 (antibody, human IgG1, lambda, V domains shown)
VH: QVQLVESGGGLVKPGGSLRLSCAASGFTFSSYTMNWVRQAPGKGLEWVGRIKTKTNGGTTDYAAPVKGRFTISRDDSKNTLYLQMNSLKTEDTAVYYCARERSRAGSIFDPWGQGTLVTVSS
VL: DIVLTQPPSVSGAPGQRVTISCSGSSSNIGFNYVSWYQQLPGTAPKLLIYYNNQRPSGVPDRFSGSKSGTSASLAITGLQAEDEADYYCSTWTGTSESHVFGGGTKLTVLG
B7: 12225 (antibody, human IgG1, kappa, V domains shown)
VH: B3 VH with K54A, L55F, M57T, H59N
VL: B3 VL
notes: also called MOR 12225
B8: ICD3 Ab (antibody, V domains shown)
VH: QSLEESGGDLVKPGASLTLTCTASGFSFTKNAYMCWDRQAPGKRPEWIACIETGDGTTYYASWAKGRFTVSKTSSTTVTLQMTSLTAADTATYFCARELYDDYGDYFNLWGPGTLVTVSS
VL: ALVMTQTPSSVSAAVGGTVTINCQTSENFYSNDILSWYQQKPGQPPKLLIYEASTLASGVPSRFKGSGSGTQFTLTISDVQCDDAATYYCQGSVLDSGWYDISFGGGTEVVVKG
notes: also called ICD3 antibody
B9: 20350 (antibody, human IgG1, kappa, V domains shown)
VH: B3 VH with K54R, L55W, M57A
VL: B3 VL
B10: 20358 (antibody, human IgG1, kappa, V domains shown)
VH: B5 VH with I52V, I54Y, F55H, A58T, N59D
VL: B1 VL with S30A, H32Y, N34A, A50D, D91A, H93K, F96Y

Assays:
[1] = molecular target: T3, Human Notch 3 (wild type) (human, UniProt Q9UM47 40-2321); assay: FACS on U2OS_N3 cells, with U2OS_parental cells as control
T3 construct: also called Notch 3 receptor

EGF32 NRR (mouse) [2] = molecular target: T4, EGF32 NRR (mouse) (mouse, UniProt Q61982); assay: Biacore (SPR); set-up not stated on the sheet
T4 construct: recombinant, C-terminal six histidine tag

EGF32 NRR (cyno) [3] = molecular target: T5, EGF32 NRR (cyno) (cynomolgus monkey); assay: Biacore (SPR); set-up not stated on the sheet
T5 construct: recombinant, C-terminal six histidine tag

EGF32 NRR (human) [4] = assay: Biacore (SPR); set-up not stated on the sheet
EGF32 NRR (mouse) [5] = molecular target: T4, EGF32 NRR (mouse); assay: ELISA: IgG titrated on directly coated recombinant antigen
EGF32 NRR (cyno) [6] = molecular target: T5, EGF32 NRR (cyno); assay: as above
EGF32 NRR (human) [7] = assay: as above
Human Notch3-Gal4-VP16 [8] = molecular target: Human Notch3-Gal4-VP16 (human); assay: cell-based or functional assay
[9] = molecular target: T6, Human Notch3 Negative Regulatory Region (NRR), residues 1378 to 1640 of human Notch3, with C-terminal His tag (human, UniProt Q9UM47 1378-1640); assay: HDx-MS without Ca2+, IgG with Notch 3 NRR
T6 construct: also called Notch3 NRR; Notch 3 NRR
Procedure: Deuterium exchange was quenched by diluting the exchanged solution 1:1 with (6 M Urea and 1 M TCEP pH=2.5) for 5 minutes at 2° C. After quenching, the sample was injected onto the Waters UPLC system where it was digested using an immobilized pepsin column that was maintained at 12° C. After digestion, peptides were retained on a Waters UPLC HSS T3 2.1×5 mm pre-column.

EGF32 NRR (cyno) [10] = molecular target: T5, EGF32 NRR (cyno); assay: ELISA: IgG titrated on directly coated recombinant antigen; remark: listed apart in the source
Human Notch3-Gal4-VP16 [11] = molecular target: Human Notch3-Gal4-VP16 (human); assay: cell-based or functional assay; remark: listed apart in the source
cyno LBD [12] = molecular target: T7, cyno LBD; assay: Biacore (SPR); set-up not stated on the sheet
T7 construct: also called N3_EGF4-11_Fc cyno

cyno LBD [13] = molecular target: T7, cyno LBD; assay: ELISA: IgG titrated on directly coated recombinant antigen
Human Notch3-Gal4-VP16 [14] = molecular target: Human Notch3-Gal4-VP16 (human); assay: cell-based or functional assay; remark: listed apart in the source
cyno LBD [15] = molecular target: T7, cyno LBD; assay: ELISA: IgG titrated on directly coated recombinant antigen; remark: listed apart in the source
[16] = molecular target: T3, Human Notch 3 (wild type); assay: FACS on U2OS_N3 cells (U2OS over-expressing human Notch3)
[17] = molecular target: T8, Notch1 intracellular domain (ICD1) (UniProt P46531 1754-2555); assay: Western blot of lysates of T-cell acute lymphoblastic leukemia cell lines
T8 construct: domain: Notch1 intracellular domain (ICD1)
T8 sequence (P46531 1754-2555 limits assumed): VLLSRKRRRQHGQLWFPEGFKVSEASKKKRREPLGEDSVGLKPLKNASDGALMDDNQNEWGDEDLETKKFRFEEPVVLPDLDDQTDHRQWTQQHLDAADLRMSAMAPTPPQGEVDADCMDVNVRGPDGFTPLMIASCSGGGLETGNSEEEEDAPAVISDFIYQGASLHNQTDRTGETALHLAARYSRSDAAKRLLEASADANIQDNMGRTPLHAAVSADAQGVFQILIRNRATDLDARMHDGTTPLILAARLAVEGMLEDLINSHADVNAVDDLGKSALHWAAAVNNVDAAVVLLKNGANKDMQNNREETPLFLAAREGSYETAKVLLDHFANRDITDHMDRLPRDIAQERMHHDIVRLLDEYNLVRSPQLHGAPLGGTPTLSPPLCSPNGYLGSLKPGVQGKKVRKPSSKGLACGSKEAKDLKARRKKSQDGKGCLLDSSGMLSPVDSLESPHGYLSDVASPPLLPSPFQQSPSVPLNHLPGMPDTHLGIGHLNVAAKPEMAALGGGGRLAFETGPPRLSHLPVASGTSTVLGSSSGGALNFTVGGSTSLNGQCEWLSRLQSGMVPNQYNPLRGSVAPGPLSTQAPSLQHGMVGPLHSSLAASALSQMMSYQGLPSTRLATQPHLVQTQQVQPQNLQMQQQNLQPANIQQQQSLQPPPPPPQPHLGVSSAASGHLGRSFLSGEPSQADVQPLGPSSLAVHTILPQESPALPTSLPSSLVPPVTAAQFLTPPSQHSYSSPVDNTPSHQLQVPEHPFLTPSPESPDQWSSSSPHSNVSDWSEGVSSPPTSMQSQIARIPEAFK
Procedure: SDS-PAGE: Samples were run under standard conditions in 1× NuPage MOPS SDS running buffer (Invitrogen, cat# NP0001) for approximately 90 min at 180 V. Before transfer to a nitrocellulose membrane (iBlot, Invitrogen), gels were soaked in 2× Transfer Buffer (Invitrogen, cat#NP0006-1) with 20% methanol. Membranes were blocked in 4% milk-TBST for one hour; supernatants from hybidoma supernatants were diluted 1:4 in 2% milk-TBST and incubated ON at 4° C. with gentle shaking. Secondary antibodies were added in 2% milk-TBST for 45 minutes, after a series of membrane washes with TBST. Membrane was developed using ECL Plus Western Detection System (GE healthcare, cat# RPN2232).

[18] = molecular target: T1, Gamma secretase cleaved form of the …; assay: Western blot of TALL-1 cell lysates with hybridoma sub-clone supernatant
[19] = molecular target: T2, ICD3 of MDA-MB468 cells (frame-shift …); assay: Western blot of MDA-MB468 cell lysates
Procedure: Initially these 2 cell line models were used to characterize the effects of Notch3 inhibitory antibodies on Notch3 signaling. […] Antibodies were added directly to the plate and they were further incubated for 72 hr at 37° C., 5% CO₂. […] Suspension cells were spun down and then washed in PBS.
ICD3 levels are a membrane proximal readout of Notch3 signaling activity. […] This ICD3 can be detected as a faster migrating band on a Western blot.

Binder	Kd (EGF32 NRR (mouse) [2])	Kd (EGF32 NRR (cyno) [3])	EC50 (EGF32 NRR (cyno) [6])	% inhibition, Delta 1 co-culture Notch3 reporter gene assay (Human Notch3-Gal4-VP16 [8])	% inhibition, Jagged1 co-culture Notch3 reporter gene assay (Human Notch3-Gal4-VP16 [8])	IC50, Delta 1 co-culture Notch3 reporter gene assay (Human Notch3-Gal4-VP16 [8])	IC50, Jagged1 co-culture Notch3 reporter gene assay (Human Notch3-Gal4-VP16 [8])	also measured
B1	1 nM	2.7 nM	0.6 nM	-1%	-5%			EC50 (read off the curve) [1]: ~0.5 nM; Kd (EGF32 NRR (human) [4]): 0.9 nM; EC50 (EGF32 NRR (mouse) [5]): 2.2 nM; EC50 (EGF32 NRR (human) [7]): 0.9 nM
B2	4.4 nM	0.4 nM	0.6 nM	18%	60%	6.4 nM	4.6 nM	Kd (EGF32 NRR (human) [4]): 0.5 nM; EC50 (EGF32 NRR (mouse) [5]): 0.7 nM; EC50 (EGF32 NRR (human) [7]): 0.8 nM; binding result [9]: binds
B3		0.7 nM	0.6 nM	19%	-88%	0.3 nM	0.4 nM	
B4		1.2 nM	0.8 nM	30%	-50%	1.4 nM	0.8 nM	
B5		19 nM	0.4 nM	16%	56%	22 nM	0.2 nM	EC50 (read off the curve) (EGF32 NRR (cyno) [10]): ~0.6 nM
B6				85%	77%	5.5 nM	0.7 nM	IC50 (read off the curve), Jagged1 co-culture reporter gene assay (Human Notch3-Gal4-VP16 [11]): ~0.8 nM; Kd (cyno LBD [12]): 24 nM; EC50 (cyno LBD [13]): 0.5 nM; IC50 (read off the curve), Delta1 co-culture reporter gene assay (Human Notch3-Gal4-VP16 [14]): ~5 nM; EC50 (read off the curve) (cyno LBD [15]): ~0.3 nM; binding result [16]: binds
B7		2.7 nM	0.9 nM	-8%	-165%		5.8 nM	
B8								binding result [17]: no binding (tested: 1:5000 dilution); binding result [18]: binds; binding result [19]: binds
B9		0.3 nM	1.4 nM					
B10	70 nM	2.7 nM	0.5 nM					
